Positions count from the first letter of the chain named.
B1: BAP070-hum01 (antibody, IgG1, V domains shown)
VH: QVQLVQSGAEVKKPGASVKVSCKASGYTFTNYGMNWVRQARGQRLEWIGWINTYTGEPTYADDFKGRLTISKDTSKNQVVLTMTNMDPVDTATYYCTTYATSWYWGQG
VL: DIQMTQSPSSLSASVGDRVTITCRASESVDSYGNSFMHWYQQKPGQAPRLLIYRASNLESGVPSRFSGSGSGTDFTFTISSLQPEDIATYYCQQSNEDLTFG
notes: Expressed as soluble IgG1 in CHO cells, tested as supernatant; The entries stop inside FR4 (...WGQG / ...FG); also called humanized hit 1
B2: BAP070-hum05 (antibody, IgG1, V domains shown)
VH: EVQLVQSGAEVKKPGESLRISCKGSGYTFTNYGMNWIRQPPGKGLEWIGWINTYTGEPTYADDFKGRVTISADKSISTAYLQWSSLKASDTAMYYCTTYATSWYWGQG
VL: B1 VL
notes: Expressed as soluble IgG1 in CHO cells, tested as supernatant; The entries stop inside FR4
B3: BAP070-hum04 (antibody, V domains shown)
VH: B1 VH
VL: AIQLTQSPSSLSASVGDRVTITCRASESVDSYGNSFMHWFQQRPGQSPRRLIYRASNLESGIPPRFSGSGYGTDFTLTINNIESEDAAYYFCQQSNEDLTFG
notes: as for B2
B4: BAP070-hum03 (antibody, IgG1, V domains shown)
VH: QVQLVQSGAEVKKPGASVKVSCKASGYTFTNYGMNWVRQATGQGLEWMGWINTYTGEPTYADDFKGRFVFSLDTSVSTAYLQICSLKAEDTAVYYCTTYATSWYWGQG
VL: B1 VL with D1A, M4L
notes: as for B2
B5: BAP070-hum06 (antibody, IgG1, V domains shown)
VH: B2 VH
VL: B1 VL with D1A, M4L
notes: as for B2
B6: BAP070-hum02 (antibody, IgG1, V domains shown)
VH: B1 VH
VL: AIQLTQSPSSLSASVGDRVTITCRASESVDSYGNSFMHWYQQKPGKAPKLLIYRASNLESGIPARFSGSGSGTEFTLTISSLQSEDFAVYYCQQSNEDLTFG
notes: as for B2
B7: BAP070-01 (human-mouse chimeric MAb 583) (antibody, human IgG1, kappa, V domains shown)
VH: QIQLVQSGPELKKPGETVKISCKASGYTFTNYGMNWVKQAPGKGLKWMGWINTYTGEPTYADDFKGRFAFSLETSASTAYLQINNLKNEDTATYFCTTYATSWYWGQGTLVTVSS
VL: DIVLTQSPASLAVSLGQRATISCRASESVDSYGNSFMHWYQQKPGQPPKLLIYRASNLESGIPARFSGSGSRTDFTLTINPVEADDVATYYCQQSNEDLTFGQGTKVEIKR
notes: used as CHO cell supernatant; also called BAP070-1

Biological target: T1, Human hepcidin peptide (hepcidin-25) (human)
T1 construct: Synthetic 25 aa peptide; also called hep-25; Hep-25
T1 peptide: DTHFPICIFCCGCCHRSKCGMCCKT
Experiment: titration affinity ELISA, hepcidin 100 ng/well on Nunc Immobilizer Amino plate; antibody 0 ng/ml (blank)
Experimental: (§1) FIGS. 17A-C. Titration affinity ELISA of humanized hits. FIG. 17A: Assay layout. CHO cells were seeded in 6 well plates, transfected with BAP070-01 (recombinant chimera), BAP070-01 humanized hits or vector only using BioAtla's transfection protocol and cultured at 37° C. in DMEM with 10% serum. Supernatants were collected at 48 hours post-transfection. Concentration of IgG in the supernatant was determined using BioAtla's quantitation ELISA. […] Vector only supernatant (column 7) was used as negative control. Bound antibodies were detected with anti-human IgG conjugated with HRP (1:2500). The reactions were stopped with 1 N HCl at 1.5 minutes after TMB was added to the wells and read immediately. OD 450 nm value of the reactions was measure with Molecular Device SPECTRAMAX® Plus. FIG. 17B: OD 450 nm value of the reactions measured with Molecular Device SPECTRAMAX® Plus. FIG. 17C: SOFTMAX® graph of […] data (Brown triangle: BAP070-01 recombinant chimeric antibody). X axis: Antibody concentration in ng/ml. Y axis: OD 450 nm values

Binder	OD 450 nm
B1	0.05 OD450
B2	0.037 OD450
B3	0.045 OD450
B4	0.051 OD450
B5	0.042 OD450
B6	0.048 OD450
B7	0.05 OD450

Biological target: T1, Human hepcidin peptide (hepcidin-25)
Experiment: titration affinity ELISA, hepcidin 100 ng/well on Nunc Immobilizer Amino plate, CHO supernatant; antibody 25 ng/ml
Experimental: as §1

Binder	OD 450 nm
B1	2.83 OD450
B2	2.63 OD450
B3	2.81 OD450
B4	2.62 OD450
B5	2.69 OD450
B6	2.77 OD450
B7	2.57 OD450

Biological target: T1, Human hepcidin peptide (hepcidin-25)
Experiment: titration affinity ELISA, hepcidin 100 ng/well on Nunc Immobilizer Amino plate, CHO supernatant; antibody 50 ng/ml
Experimental: as §1

Binder	OD 450 nm
B1	3.02 OD450
B2	2.85 OD450
B3	2.99 OD450
B4	2.93 OD450
B5	3.06 OD450
B6	2.98 OD450
B7	3 OD450

Biological target: T1, Human hepcidin peptide (hepcidin-25)
Experiment: titration affinity ELISA, hepcidin 100 ng/well on Nunc Immobilizer Amino plate, CHO supernatant; antibody 100 ng/ml
Experimental: as §1

Binder	OD 450 nm
B1	3.3 OD450
B2	3.11 OD450
B3	3.35 OD450
B4	3.27 OD450
B5	3.25 OD450
B6	3.31 OD450
B7	3.33 OD450

Biological target: T1, Human hepcidin peptide (hepcidin-25)
Experiment: titration affinity ELISA, hepcidin 100 ng/well on Nunc Immobilizer Amino plate, CHO supernatant; antibody 1.56 ng/ml
Experimental: as §1

Binder	OD 450 nm
B1	0.827 OD450
B2	0.59 OD450
B3	0.827 OD450
B4	0.564 OD450
B5	0.75 OD450
B6	0.804 OD450
B7	0.492 OD450

Biological target: T1, Human hepcidin peptide (hepcidin-25)
Experiment: titration affinity ELISA, hepcidin 100 ng/well on Nunc Immobilizer Amino plate, CHO supernatant; antibody 12.5 ng/ml
Experimental: as §1

Binder	OD 450 nm
B1	2.26 OD450
B2	1.94 OD450
B3	2.33 OD450
B4	1.95 OD450
B5	2.12 OD450
B6	2.32 OD450
B7	1.8 OD450

Biological target: T1, Human hepcidin peptide (hepcidin-25)
Experiment: titration affinity ELISA, hepcidin 100 ng/well on Nunc Immobilizer Amino plate, CHO supernatant; antibody 3.13 ng/ml
Experimental: as §1

Binder	OD 450 nm
B1	1.29 OD450
B2	0.949 OD450
B3	1.38 OD450
B4	0.925 OD450
B5	1.15 OD450
B6	1.28 OD450
B7	0.793 OD450

Biological target: T1, Human hepcidin peptide (hepcidin-25)
Experiment: titration affinity ELISA, hepcidin 100 ng/well on Nunc Immobilizer Amino plate, CHO supernatant; antibody 6.25 ng/ml
Experimental: as §1

Binder	OD 450 nm
B1	2.05 OD450
B2	1.48 OD450
B3	2 OD450
B4	1.6 OD450
B5	1.68 OD450
B6	1.85 OD450
B7	1.32 OD450
